{
  "source": "patent US20120045391A1",
  "about": "(NATIONAL RESEARCH COUNCIL CANADA, published 2012)",
  "key": {"[1]": {"biological_target": "T1, IGFBP7 (recombinant; preparation not specified) (UniProt Q16270 27-282)", "T1 construct": "also called immobilized IGFBP7; recombinant IGFBP7", "T1 sequence (looked up)": "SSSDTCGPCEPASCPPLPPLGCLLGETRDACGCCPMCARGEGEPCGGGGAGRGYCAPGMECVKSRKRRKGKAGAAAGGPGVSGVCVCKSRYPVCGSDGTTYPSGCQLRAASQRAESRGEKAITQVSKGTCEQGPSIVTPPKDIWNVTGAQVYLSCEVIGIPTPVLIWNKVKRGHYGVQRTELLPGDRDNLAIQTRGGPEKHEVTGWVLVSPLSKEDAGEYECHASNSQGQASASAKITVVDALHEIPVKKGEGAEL", "assay": "SPR, fit to a steady state model"}, "[2]": {"biological_target": "T2, recombinant protein IGFBP7 from R&D (UniProt Q16270 27-282)", "T2 construct": "Bought protein immobilized on the Biacore chip; also called recombinant IGFBP7", "T2 sequence (looked up)": "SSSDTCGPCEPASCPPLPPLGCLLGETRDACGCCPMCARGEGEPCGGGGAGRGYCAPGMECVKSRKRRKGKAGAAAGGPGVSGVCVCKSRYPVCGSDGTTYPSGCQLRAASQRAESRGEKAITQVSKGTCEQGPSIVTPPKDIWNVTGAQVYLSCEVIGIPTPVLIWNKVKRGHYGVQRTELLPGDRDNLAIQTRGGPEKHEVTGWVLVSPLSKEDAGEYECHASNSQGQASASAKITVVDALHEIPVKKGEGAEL", "assay": "SPR, steady state analysis as Scatchard plot, IGFBP7 as ligand"}, "[3]": {"biological_target": "T2, recombinant protein IGFBP7 from R&D", "assay": "SPR, steady state analysis, IGFBP7 as ligand"}, "[4]": {"biological_target": "T3, recombinant custom-synthesized IGFBP7 (UniProt Q16270 27-282)", "T3 construct": "also called custom-synthesized recombinant IGFBP7", "T3 sequence (looked up)": "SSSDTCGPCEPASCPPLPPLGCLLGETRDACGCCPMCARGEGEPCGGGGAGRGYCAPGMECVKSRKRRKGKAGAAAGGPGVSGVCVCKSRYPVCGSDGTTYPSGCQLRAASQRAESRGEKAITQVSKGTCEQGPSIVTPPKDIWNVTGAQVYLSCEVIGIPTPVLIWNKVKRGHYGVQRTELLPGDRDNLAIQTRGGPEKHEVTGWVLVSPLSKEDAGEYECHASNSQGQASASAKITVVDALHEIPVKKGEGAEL", "assay": "SPR, steady state analysis, IGFBP7 as ligand"}},
  "data": [
    {"binder": "sdAb clone 4.6-IGFBP7 (VHH, also called IGFBP7-4.6; not shown: c-Myc detection tag and 5xHis purification tag added at the C-terminus by vector pSJF2) VHH: QVKLEESGGGSVQPGGSLRLSCAASGRTFSRLAMGWFRQAPGKERELVAGISRSGDGTHYAYSVKGRFTISRDNAANTVELQMNSLKPEDTAVYFCAAARTAFYYYGNDYNYWGQGTQVTVSS", "values": [
      {"measurement": "Kd", "setting": "[1]", "result": "~1000", "unit": "nM"}
    ]},
    {"binder": "sdAb clone 4.43-IGFBP7 (VHH, not shown: c-Myc detection tag and 5xHis purification tag added at the C-terminus by vector pSJF2) VHH: QVKLEESGGGLVQAGGSLRLSCAASGRTSRRYAMGWFRQAPGKEREFVAGISRSGDGTHYAYSVKGRFTISRDNAANTVELQMNSLKPEDTAVYFCAAARTAFYYYGNDYNYWGQGTQVTVSS", "values": [
      {"measurement": "Kd", "setting": "[2]", "result": 50, "unit": "nM"},
      {"measurement": "Kd", "setting": "[3]", "result": 40, "unit": "nM"},
      {"measurement": "Kd", "setting": "[4]", "result": 30, "unit": "nM"}
    ]}
  ]
}
